# Test results reported in article PMC9254494, “Modulation of synaptic plasticity, motor unit physiology, and TDP-43 pathology by CHCHD10” (Acta Neuropathologica Communications, 2022).
# Target: Recombinant full-length human TDP-43 (human, UniProt Q13148 1-414)
# Experiment: cell-based or functional assay
# Recombinant full-length human TDP-43, sequence (Q13148 whole entry): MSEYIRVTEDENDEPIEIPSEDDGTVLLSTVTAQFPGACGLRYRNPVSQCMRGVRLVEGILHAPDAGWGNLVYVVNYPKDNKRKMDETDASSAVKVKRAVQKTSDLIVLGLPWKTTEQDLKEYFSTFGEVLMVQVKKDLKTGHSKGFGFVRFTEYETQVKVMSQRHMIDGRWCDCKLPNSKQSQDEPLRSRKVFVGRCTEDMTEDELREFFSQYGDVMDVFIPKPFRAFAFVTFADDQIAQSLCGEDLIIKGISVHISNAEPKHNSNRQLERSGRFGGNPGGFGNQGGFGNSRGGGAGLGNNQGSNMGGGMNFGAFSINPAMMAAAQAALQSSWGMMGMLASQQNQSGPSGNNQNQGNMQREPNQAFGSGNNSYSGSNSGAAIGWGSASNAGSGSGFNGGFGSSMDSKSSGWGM
binder,measurement,value
"His-tagged CHCHD10^S59L recombinant protein (natural protein, human, UniProt Q8WYQ3 17-142, looked up) AAPSAHPPAHPPPSAAAPAPAPSGQPGLMAQMATTAAGVAVGLAVGHVMGSALTGAFSGGSSEPSQPAVQQAPTPAAPQPLQMGPCAYEIRQFLDCSTTQSDLSLCEGFSEALKQCKYYHGLSSLP","area of high-height particles > 10 nm by atomic force microscopy after co-incubation of TDP-43 (1 μM) with CHCHD10^S59L (1 μM), 37 °C, 8 h, shaking, against TDP-43 alone",> 3 fold
